Measurements: US20160200831A1 (Sanofi, published 2016)
Read-outs that look alike come from different tables or passages of the source.

What was measured:
[1] = target: T1, glycosylated human PAI-1 (active form) (human, UniProt P05121 24-402, glycosylated); experiment: cell-based or functional assay
[2] = target: T1, glycosylated human PAI-1 (active form); experiment: cell-based or functional assay; remark: listed apart in the source
[3] = target: T2, human PAI-1 (human, UniProt P05121 24-402); experiment: cell-based or functional assay
T2 sequence (P05121 24-402 limits assumed): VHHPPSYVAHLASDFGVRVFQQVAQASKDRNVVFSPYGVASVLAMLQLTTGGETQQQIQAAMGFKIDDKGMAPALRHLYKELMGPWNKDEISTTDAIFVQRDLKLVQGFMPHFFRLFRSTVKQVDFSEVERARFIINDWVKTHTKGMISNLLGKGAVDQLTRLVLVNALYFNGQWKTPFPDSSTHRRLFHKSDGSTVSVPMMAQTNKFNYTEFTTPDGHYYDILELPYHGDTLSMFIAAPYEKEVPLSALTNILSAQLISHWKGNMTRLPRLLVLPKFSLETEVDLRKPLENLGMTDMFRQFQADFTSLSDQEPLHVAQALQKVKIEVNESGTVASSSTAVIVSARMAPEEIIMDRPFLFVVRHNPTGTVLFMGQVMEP

[4] = target: T3, cynomolgus PAI-1 (cynomolgus monkey (Macaca fascicularis), UniProt P05121 24-402 (human entry)); experiment: cell-based or functional assay
T3 sequence (P05121 other isoform, or with tags, fused parts or gaps limits assumed): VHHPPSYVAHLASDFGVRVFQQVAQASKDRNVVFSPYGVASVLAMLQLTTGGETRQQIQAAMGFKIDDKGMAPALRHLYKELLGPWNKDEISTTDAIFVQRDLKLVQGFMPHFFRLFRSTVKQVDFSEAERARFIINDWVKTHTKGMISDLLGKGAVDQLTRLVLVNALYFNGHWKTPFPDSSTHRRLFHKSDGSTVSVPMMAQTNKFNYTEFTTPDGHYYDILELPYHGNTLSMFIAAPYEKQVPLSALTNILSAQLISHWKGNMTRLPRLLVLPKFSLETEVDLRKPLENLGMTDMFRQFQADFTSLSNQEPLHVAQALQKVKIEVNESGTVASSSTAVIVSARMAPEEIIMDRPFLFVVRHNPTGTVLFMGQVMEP

[5] = target: T2, human PAI-1; experiment: cell-based or functional assay; remark: listed apart in the source
[6] = target: T1, glycosylated human PAI-1 (active form); experiment: cell-based or functional assay; remark: listed apart in the source
[7] = target: T4, human PAI-1 captured on immobilized human vitronectin (human, UniProt P04004 20-478); experiment: Biacore, hPAI-1 on vitronectin chip, 1:1 model
T4 construct: non-covalent complex formed on the chip or plate; also called PAI-1/Vn complex; Vn captured hPAI-1
T4 sequence (chain, as listed by the source limits assumed, chain 1 of 2): as the sequence (P05121 24-402 limits assumed) above
T4 sequence (P04004 20-478 limits assumed, chain 2 of 2): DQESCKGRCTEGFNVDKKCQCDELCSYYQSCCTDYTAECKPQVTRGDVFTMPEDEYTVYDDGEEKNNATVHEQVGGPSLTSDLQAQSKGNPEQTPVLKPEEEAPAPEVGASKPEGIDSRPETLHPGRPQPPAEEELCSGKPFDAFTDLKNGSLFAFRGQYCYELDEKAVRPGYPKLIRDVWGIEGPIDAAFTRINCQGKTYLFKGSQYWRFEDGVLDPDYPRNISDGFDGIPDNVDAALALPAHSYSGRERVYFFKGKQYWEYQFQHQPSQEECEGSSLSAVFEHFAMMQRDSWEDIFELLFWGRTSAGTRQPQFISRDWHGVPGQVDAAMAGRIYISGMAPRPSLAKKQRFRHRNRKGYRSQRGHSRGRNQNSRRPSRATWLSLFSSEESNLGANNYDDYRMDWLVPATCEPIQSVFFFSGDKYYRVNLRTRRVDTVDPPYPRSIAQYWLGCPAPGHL

[8] = target: T2, human PAI-1; experiment: Biacore, mAb on anti-human IgG Fc chip, 1:1 model
[9] = target: T5, cyno PAI-1 captured on immobilized human vitronectin (cynomolgus monkey; human, UniProt P04004 20-478, limits assumed); experiment: Biacore, cPAI-1 on vitronectin chip, two state reaction model
T5 construct: non-covalent complex formed on the chip; also called cPAI-1/Vn
T5 sequence (chain, as listed by the source limits assumed, chain 1 of 2): as the sequence (P05121 other isoform, or with tags, fused parts or gaps limits assumed) above
T5 sequence (P04004 20-478 limits assumed, chain 2 of 2): as the sequence (P04004 20-478 limits assumed, chain 2 of 2) above

[10] = target: T3, cynomolgus PAI-1; experiment: Biacore, mAb on anti-human IgG Fc chip / cyno PAI-1, 1:1 model
[11] = target: T5, cyno PAI-1 captured on immobilized …; experiment: Biacore, cPAI-1 on vitronectin chip, two state reaction model (ka1)
[12] = target: T5, cyno PAI-1 captured on immobilized …; experiment: Biacore, cPAI-1 on vitronectin chip, two state reaction model (kd1)
[13] = target: T1, glycosylated human PAI-1 (active form); experiment: cell-based or functional assay; remark: listed apart in the source
[14] = target: T1, glycosylated human PAI-1 (active form); experiment: cell-based or functional assay; remark: listed apart in the source
[15] = target: T2, human PAI-1; experiment: cell-based or functional assay; remark: listed apart in the source
[16] = target: T1, glycosylated human PAI-1 (active form); experiment: cell-based or functional assay; remark: listed apart in the source
[17] = target: T1, glycosylated human PAI-1 (active form); experiment: Biacore (summary table)
Description: (§1) In kinetics measurement, the antibodies were evaluated in reverse at 25° C. In the reverse assay, PAI-1 antibodies were captured to the anti-mouse IgG Fc antibody surface prepared on CM5 chip followed by injecting the serial 2× dilutions of PAI-1 proteins (human or cyno) starting at 40 nM. A high flow rate was chosen at 50 ul/min to avoid mass transportation limitation. Two thousand seconds was allowed for dissociation time to accommodate for the slow off rate of the selected antibodies. The chip was regenerated by glycine-HCl, pH 1.7 buffer after each round of antibody-PAI-1 binding. Kinetics data analysis was performed using Biacore BIAevaluation software. The sensorgrams were double-referenced by subtracting the reference flow cell values and the blank buffer values. The sensorgrams were fitted by using the simulated kinetics 1:1 (Langmuir) model with local Rmax.

[18] = target: T2, human PAI-1; experiment: cell-based or functional assay; remark: listed apart in the source
[19] = target: T3, cynomolgus PAI-1; experiment: cell-based or functional assay; remark: listed apart in the source
[20] = target: T2, human PAI-1; experiment: Biacore, hybridoma supernatant
[21] = target: T5, cyno PAI-1 captured on immobilized …; experiment: Biacore, cPAI-1 on vitronectin chip, 1:1 model
[22] = target: T2, human PAI-1; experiment: Biacore reverse assay, mAb captured by anti-mouse IgG Fc, 25 C
Description: as §1

[23] = target: T3, cynomolgus PAI-1; experiment: as above
Description: as §1

[24] = target: T4, human PAI-1 captured on immobilized …; experiment: Biacore forward assay, hPAI-1 captured on immobilized vitronectin
Description: Binding kinetics of representative antibodies were further analyzed and compared in Biacore forward assay with vitronectin and PAI-1 complex. In the forward assay, human vitronectin protein was immobilized onto the CM5 chip in flow cells Fc1-Fc4 by amine coupling. Human PAI-1 was then captured to the vitronectin surface in flow cells Fc2-Fe4 as ligand. Fc1 was reserved as reference cell. The antibodies were diluted 2× starting from 40 nM and injected to Fc1-4. Kinetics data analysis was performed using Biacore BIAevaluation software. The sensorgrams were first double-referenced by subtracting the reference cell values and the blank buffer values, and then fitted by 1:1 (Langmuir) model was used with global Rmax.

T1 sequence (P05121 24-402 limits assumed): as the sequence (P05121 24-402 limits assumed) above

B1: A44-hv11 (antibody, V domains shown)
VH: QMTLKESGPTLVKPTQTLSLTCSVSGDSMTNGYWNWIRQFPGKALEYMGYITYSGSTYYNPSLKGRITITRDTSKNQYYLTLSSVTTVDTATYYCARWHYGSPYYFDYWGQGTTLTVSS
VL: DIKMTQSPSSLSASVGDRVTITCKASQDINSYLSWLQQKPGKSPKTLIYRAQRSVEGVPSRFSGSGSGQDYSLTISSLQPEDLGIYYCLQYDEFPPTFGGGTKLEIK
notes: humanized A44, HEK293; compared with a human IgG1 isotype control; constant regions as for A44-hv1; also called A44V11; A44v11
[1]
  human plasma clot lysis restoration, IC50: 2000 pM
[2]
  Plasminogen Activation IC50: 2010 pM
  Plasminogen Activation Y50%: 85.8%
[3]
  active PAI-1 by uPA-PAI-1 complex ELISA, hPAI-1 Standard, IC50: 131 pM
  active PAI-1 by uPA-PAI-1 complex ELISA, hPAI-1 Standard, Y50%: 50.8%
  active PAI-1 by uPA-PAI-1 complex ELISA, hPlasma TH1782, IC50: 15.7 pM
  active PAI-1 by uPA-PAI-1 complex ELISA, hPlasma TH1782, Y50%: 37.5%
[4]
  active PAI-1 by uPA-PAI-1 complex ELISA, Cyno PAI-1, IC50: 42.4 pM
  active PAI-1 by uPA-PAI-1 complex ELISA, Cyno PAI-1, Y50%: 50.8%
[5]
  PAI-1 activity in human liver lysate (UK-PAI complex ELISA), IC50, A44-hv11 (1 nM): 36.5 pM
  PAI-1 activity in human liver lysate (UK-PAI complex ELISA), IC50, A44-hv11 (2 nM): 50.3 pM
  PAI-1 activity in human liver lysate (UK-PAI complex ELISA), IC50, A44-hv11 (3 nM): 46.5 pM
[6]
  human plasma clot lysis, IC50: 1380 pM
  human plasma clot lysis, Imax @ 100 nM: 113%
[7]
  Kd: 15.6 pM
  koff: 0.000122 s⁻¹
  kon: 7.66e+06 M⁻¹ s⁻¹
[8]
  Kd: 42.5 pM
  koff: 6.68e-05 s⁻¹
  kon: 1.57e+06 M⁻¹ s⁻¹
[9]
  Kd: 387 pM
[10]
  Kd: 30 pM
  koff: 5.6e-05 s⁻¹
  kon: 1.87e+06 M⁻¹ s⁻¹
[11]
  kon: 1.56e+06 M⁻¹ s⁻¹
[12]
  koff: 0.0006 s⁻¹

B2: A44 (antibody, mouse IgG1, V domains shown)
VH: EMQLQESGPSLVKPSQTLSLTCSVTGDSMTNGYWNWIRKFPGNKLEYMGYITYSGSTYYNPSLKGRISITRNTSKNQYYLQLSSVTTEDTATYYCARWHYGSPYYFDYWGQGTTLTVSS
VL: DIKMTQSPSSMYASLGERVTITCKASQDINSYLSWLQQKPGKSPKTLIYRANRSVDGVPSRFSGSGSGQDYSLTISSLEYEDMGIYYCLQYDEFPPTFGGGTKLEIKR
notes: mouse IgG1/kappa; also called mA44; A44 parental
[13]
  plasmin generation, hepatic stellate cells, IC50abs: 3320 pM
  plasmin generation, hepatic stellate cells, Imax: 97%
[14]
  Plasmin Generation: 3.32 nM
[15]
  Chromogenic Assay IC50: 440 pM
[16]
  Plasminogen Activation IC50: 3170 pM
  Plasminogen Activation Y50%: 46%
[2]
  Plasminogen Activation IC50: 3130 pM
  Plasminogen Activation Y50%: 79.8%
[17]
  Kd: 0.042 pM
[18]
  EC50, fall of % tPA inhibition by PAI-1 (chromogenic neutralisation assay): 4030 pM
[19]
  EC50, % PAI-1 neutralization, 2.8 nM cyno PAI-1 (chromogenic assay with human tPA); plateau about 100 %: 226 pM
[20]
  koff: ≤ 0.0001 s⁻¹
[21]
  Kd: 69.6 pM
  koff: 0.000275 s⁻¹
  kon: 3.98e+06 M⁻¹ s⁻¹
[7]
  Kd: 40.4 pM
  koff: 0.000229 s⁻¹
  kon: 5.68e+06 M⁻¹ s⁻¹
[22]
  Kd: 3.76 pM
  koff: 1.49e-05 s⁻¹
[23]
  Kd: ≤ 0.1 pM
  koff: ≤ 1e-06 s⁻¹
[24]
  Kd: ≤ 1 pM
  koff: ≤ 1e-06 s⁻¹
